Measured values from article doi:10.1101/2025.08.28.672897.

Molecular target: μ opioid receptor (MOR) (human) (UniProt P35372)
Chain of UniProt P35372 (P35372 whole entry): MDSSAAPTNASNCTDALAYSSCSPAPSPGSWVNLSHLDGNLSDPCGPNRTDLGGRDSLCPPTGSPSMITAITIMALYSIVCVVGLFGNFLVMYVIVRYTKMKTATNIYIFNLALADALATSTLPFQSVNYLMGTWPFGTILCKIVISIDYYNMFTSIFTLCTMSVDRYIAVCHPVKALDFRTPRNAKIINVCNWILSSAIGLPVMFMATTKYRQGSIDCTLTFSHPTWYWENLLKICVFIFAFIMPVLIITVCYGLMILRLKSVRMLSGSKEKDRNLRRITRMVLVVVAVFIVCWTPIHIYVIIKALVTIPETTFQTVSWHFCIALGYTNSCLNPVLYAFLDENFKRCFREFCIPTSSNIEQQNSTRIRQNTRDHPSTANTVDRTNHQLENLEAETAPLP

TRUPATH BRET2, Ggust activation, 0 mM sodium, pEC50: 10.2 pEC50
TRUPATH BRET2, Ggust activation, 140 mM sodium, pEC50: 9.57 pEC50
TRUPATH BRET2, Gi1 activation, 0 mM sodium, pEC50: 9.01 pEC50
TRUPATH BRET2, Gi1 activation, 140 mM sodium, pEC50: 7.55 pEC50
TRUPATH BRET2, Gi2 activation, 0 mM sodium, pEC50: 9.97 pEC50
TRUPATH BRET2, Gi2 activation, 140 mM sodium, pEC50: 9.17 pEC50
TRUPATH BRET2, Gi3 activation, 0 mM sodium, pEC50: 9.43 pEC50
TRUPATH BRET2, Gi3 activation, 140 mM sodium, pEC50: 8.12 pEC50
TRUPATH BRET2, GoA activation, 0 mM sodium, pEC50: 9.82 pEC50
TRUPATH BRET2, GoA activation, 140 mM sodium, pEC50: 9.08 pEC50
TRUPATH BRET2, GoB activation, 0 mM sodium, pEC50: 9.77 pEC50
TRUPATH BRET2, GoB activation, 140 mM sodium, pEC50: 8.52 pEC50
TRUPATH BRET2, Gz activation, 0 mM sodium, pEC50: 9.66 pEC50
TRUPATH BRET2, Gz activation, 140 mM sodium, pEC50: 8.82 pEC50
Substance: DAMGO (peptide)
